# Assay results from patent US20240368295A1 (SUTRO BIOPHARMA, published 2024).
# Residue numbers refer to the chain shown, from its start.
# B1: 9A8 (antibody, V domains shown)
# VH: AVTLDESGGGLQTPGGTLSLVCKASGFTFSSFNMFWVRQAPGKGLEWVAYIRNDGNSASYGPAVKGRATISRDNGQSTVRLQLNNLRAEDTATYYCAKTTCIGSGGCIDTWGHGTEVIVSS
# VL: ALTQPSSVSANPGETVKITCSGGSSDYGWFQQKSPGSAPVTVIYSNNQRPSGIPSRFSGSKSGSTGTLTITGVQAEDEAIYYCANVDYTDDVFGAGTTLTVL
# notes: chicken HybriFree-derived antibody; also called Antibody 30
# B2: 11D6 (antibody, V domains shown)
# VH: B1 VH with K43E, N56R, A58T, A92G, Y95F, I102V
# VL: B1 VL with K17E, S24N, S45R, G52D, K61G, G66N, A84G, Y88F
# notes: chicken HybriFree-derived antibody; also called Antibody 32
# B3: 10G5 (antibody, V domains shown)
# VH: B1 VH with T17V, R52S, N56S, A58T, Y95F
# VL: B1 VL with S24N, S25Y, F30Y, V42L, S45Y, Q48K, G52D, Y88S
# notes: chicken HybriFree-derived antibody; also called Antibody 31
# B4: SRP2137-A05 (antibody, IgG1, V domains shown)
# VH: EVQLVESGGGLVQPGGSLRLSCAASGFNINNSYIHWVRQAPGKGLEWVGWIYPYSGYTNYADSVKGRFTISADTSKNTAYLQMNSLRAEDTAVYYCARDYGPWYGTGVLDYWGQGTLVTVSS
# VL: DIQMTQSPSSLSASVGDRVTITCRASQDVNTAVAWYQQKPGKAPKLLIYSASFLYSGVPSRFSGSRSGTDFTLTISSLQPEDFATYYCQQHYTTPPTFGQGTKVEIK
# notes: IgG1 with trastuzumab light chain, His/FLAG-tagged, cell-free expressed; also called Antibody 14
# B5: SRP2213-A06 (antibody, IgG1, V domains shown)
# VH: EVQLVESGGGLVQPGGSLRLSCAASGFNISSYAIHWVRQAPGKGLEWVGVISPYGGYTEYADSVKGRFTISADTSKNTAYLQMNSLRAEDTAVYYCARDFYDRYSTYVLDYWGQGTLVTVSS
# VL: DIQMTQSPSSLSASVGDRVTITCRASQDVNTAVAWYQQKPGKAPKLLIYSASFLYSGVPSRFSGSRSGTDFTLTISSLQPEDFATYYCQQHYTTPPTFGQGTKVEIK
# notes: IgG1 with trastuzumab light chain, His/FLAG-tagged, cell-free expressed; also called Antibody 23
# B6: SRP2291-E06 (antibody, IgG1, V domains shown)
# VH: B5 VH with S31P, A33T, G49A, V50H, S52F, Y54S, E59D, S105A
# VL: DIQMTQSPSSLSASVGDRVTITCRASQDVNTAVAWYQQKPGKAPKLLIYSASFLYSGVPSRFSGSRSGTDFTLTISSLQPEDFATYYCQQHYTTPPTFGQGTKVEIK
# notes: IgG1 with trastuzumab light chain, His/FLAG-tagged, cell-free expressed; also called Antibody 25
# B7: SRP2265-B06 (antibody, IgG1, V domains shown)
# VH: EVQLVESGGGLVQPGGSLRLSCAASGFNIRVSGIHWVRQAPGKGLEWVGFINPAGGYTDYADSVKGRFTISADTSKNTAYLQMNSLRAEDTAVYYCARDYVQAYWTYVLDYWGQGTLVTVSS
# VL: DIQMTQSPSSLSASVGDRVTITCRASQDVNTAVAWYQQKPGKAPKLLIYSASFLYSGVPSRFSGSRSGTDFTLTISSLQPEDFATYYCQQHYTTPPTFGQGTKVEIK
# notes: IgG1 with trastuzumab light chain, His/FLAG-tagged, cell-free expressed; also called Antibody 5
# B8: SRP2265-D11 (antibody, IgG1, V domains shown)
# VH: B7 VH with R30S, V31G, S32P, G55A, V101I, Q102Y, A103Q
# VL: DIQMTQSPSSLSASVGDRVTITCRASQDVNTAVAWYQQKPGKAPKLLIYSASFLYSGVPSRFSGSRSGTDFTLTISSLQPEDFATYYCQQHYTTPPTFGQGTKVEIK
# notes: IgG1 with trastuzumab light chain, His/FLAG-tagged, cell-free expressed; also called Antibody 9
# B9: SRP2291-A04 (antibody, IgG1, V domains shown)
# VH: B5 VH with A33G, V50F, G55D, D73G, Y101N, S105F
# VL: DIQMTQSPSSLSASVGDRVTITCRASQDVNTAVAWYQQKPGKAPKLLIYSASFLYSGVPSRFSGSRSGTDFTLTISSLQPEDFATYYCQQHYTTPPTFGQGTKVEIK
# notes: IgG1 with trastuzumab light chain, His/FLAG-tagged, cell-free expressed; also called Antibody 28
# B10: SRP2265-C03 (antibody, IgG1, V domains shown)
# VH: B7 VH with S25P, R30S, S32P, Q102P, A103Q
# VL: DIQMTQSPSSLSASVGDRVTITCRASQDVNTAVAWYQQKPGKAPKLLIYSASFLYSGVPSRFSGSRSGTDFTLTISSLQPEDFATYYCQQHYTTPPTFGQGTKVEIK
# notes: IgG1 with trastuzumab light chain, His/FLAG-tagged, cell-free expressed; also called Antibody 11
# B11: SRP2265-C02 (antibody, IgG1, V domains shown)
# VH: B7 VH with R30G, D62G, V101I, Q102Y, A103S
# VL: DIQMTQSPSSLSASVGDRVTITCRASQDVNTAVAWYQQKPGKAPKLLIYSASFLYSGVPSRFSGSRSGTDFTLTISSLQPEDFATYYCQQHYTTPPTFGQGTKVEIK
# notes: IgG1 with trastuzumab light chain, His/FLAG-tagged, cell-free expressed; also called Antibody 12
# B12: SRP2265-F02 (antibody, IgG1, V domains shown)
# VH: B7 VH with R30S, V31A, S32P, V101I, Q102R, A103Q
# VL: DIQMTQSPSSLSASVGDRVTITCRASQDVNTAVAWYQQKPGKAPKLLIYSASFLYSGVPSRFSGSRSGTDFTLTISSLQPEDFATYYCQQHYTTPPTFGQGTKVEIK
# notes: IgG1 with trastuzumab light chain, His/FLAG-tagged, cell-free expressed; also called Antibody 4
# B13: SRP2265-A06 (antibody, IgG1, V domains shown)
# VH: B7 VH with R30Y, V31R, Q102P, A103Q
# VL: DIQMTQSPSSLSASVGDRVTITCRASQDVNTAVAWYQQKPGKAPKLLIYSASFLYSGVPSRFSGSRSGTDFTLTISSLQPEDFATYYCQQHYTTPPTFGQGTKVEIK
# notes: IgG1 with trastuzumab light chain, His/FLAG-tagged, cell-free expressed; also called Antibody 13
# B14: SRP2265-F03 (antibody, IgG1, V domains shown)
# VH: B7 VH with V31G, S32P, N52S, G55A, Y100F, A103S
# VL: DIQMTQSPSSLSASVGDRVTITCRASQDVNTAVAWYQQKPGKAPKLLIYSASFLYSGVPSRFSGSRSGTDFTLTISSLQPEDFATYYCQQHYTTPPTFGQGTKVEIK
# notes: IgG1 with trastuzumab light chain, His/FLAG-tagged, cell-free expressed; also called Antibody 7
# B15: SRP2265-E02 (antibody, IgG1, V domains shown)
# VH: B7 VH with R30Y, M83T, Q102Y, A103Q
# VL: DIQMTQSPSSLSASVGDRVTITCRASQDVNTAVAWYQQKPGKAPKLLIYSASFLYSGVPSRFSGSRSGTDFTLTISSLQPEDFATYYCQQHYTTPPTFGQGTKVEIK
# notes: IgG1 with trastuzumab light chain, His/FLAG-tagged, cell-free expressed; also called Antibody 8
# B16: SRP2265-F06 (antibody, IgG1, V domains shown)
# VH: B7 VH with R30S, V31Y, S32P, V101I, Q102L, A103Q
# VL: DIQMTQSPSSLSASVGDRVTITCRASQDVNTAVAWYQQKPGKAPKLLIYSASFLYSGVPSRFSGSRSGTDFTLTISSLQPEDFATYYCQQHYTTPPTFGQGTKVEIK
# notes: IgG1 with trastuzumab light chain, His/FLAG-tagged, cell-free expressed; also called Antibody 2
# B17: SRP2265-A09 (antibody, IgG1, V domains shown)
# VH: B7 VH with R30I, V31G, S32P, Q102Y, A103N
# VL: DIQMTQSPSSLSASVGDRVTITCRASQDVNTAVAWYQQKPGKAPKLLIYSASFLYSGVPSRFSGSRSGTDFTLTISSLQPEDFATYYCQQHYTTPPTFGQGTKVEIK
# notes: IgG1 with trastuzumab light chain, His/FLAG-tagged, cell-free expressed; also called Antibody 6
# B18: SRP2265-F05 (antibody, IgG1, V domains shown)
# VH: B7 VH with R30I, V31A, S32P, Q102N
# VL: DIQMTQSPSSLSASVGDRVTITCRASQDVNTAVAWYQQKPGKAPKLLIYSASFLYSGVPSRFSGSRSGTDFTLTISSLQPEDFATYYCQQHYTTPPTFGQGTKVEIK
# notes: IgG1 with trastuzumab light chain, His/FLAG-tagged, cell-free expressed; also called Antibody 3
# B19: SRP2265-D05 (antibody, IgG1, V domains shown)
# VH: B7 VH with R30S, V31G, S32P, G55A, T69A, Y100F, Q102Y
# VL: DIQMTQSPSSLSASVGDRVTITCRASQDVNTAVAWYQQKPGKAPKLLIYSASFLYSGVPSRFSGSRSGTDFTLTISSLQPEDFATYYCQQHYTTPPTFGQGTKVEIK
# notes: IgG1 with trastuzumab light chain, His/FLAG-tagged, cell-free expressed; also called Antibody 10
# B20: SRP2290-C07 (antibody, IgG1, V domains shown)
# VH: EVQLVESGGGLVQPGGSLRLSCAASGFNITYDWIHWVRQAPGKGLEWVGVITPFDGYTYYADSVKGHFTISADTSKNTAYLQMNSLRAEDTAVYYCARDMGVGYWVGFSDYWGQGTLVTVSS
# VL: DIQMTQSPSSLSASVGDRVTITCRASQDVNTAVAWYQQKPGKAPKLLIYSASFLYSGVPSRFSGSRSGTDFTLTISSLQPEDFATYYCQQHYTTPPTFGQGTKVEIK
# notes: IgG1 with trastuzumab light chain, His/FLAG-tagged, cell-free expressed; also called Antibody 19
# B21: SRP2290-G01 (antibody, IgG1, V domains shown)
# VH: B20 VH with T30S, Y31P, D32Y, F54P, D55S, Y57F, H67R, M83V, M100L
# VL: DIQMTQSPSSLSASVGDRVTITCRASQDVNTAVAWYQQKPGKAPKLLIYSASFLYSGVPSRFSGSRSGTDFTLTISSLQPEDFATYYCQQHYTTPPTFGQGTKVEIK
# notes: IgG1 with trastuzumab light chain, His/FLAG-tagged, cell-free expressed; also called Antibody 17
# Target: T1, BCMA on BCMA-positive NCI-H929, ARP-1 and U266B1 cells (human, UniProt Q02223 1-184)
# T1 construct: they are human cell lines; also called B-cell maturation antigen; TNFRSF17
# T1 sequence: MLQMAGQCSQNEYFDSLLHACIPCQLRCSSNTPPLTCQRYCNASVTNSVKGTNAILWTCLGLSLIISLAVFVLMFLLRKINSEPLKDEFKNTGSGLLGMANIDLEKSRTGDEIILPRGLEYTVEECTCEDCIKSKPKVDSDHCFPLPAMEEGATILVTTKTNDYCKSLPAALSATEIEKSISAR
# Assay: FACS, NCI-H929 cells
# Description: (§1) Variants for which sufficient protein was purified in secondary screening were tested in a fluorescence-activated cell sorting (FACS) cell-binding assay. […] 6-12 point dilutions of anti-BCMA variants starting from concentrations of about 100-200 nM antibody were dispensed into each well using a BioMekFX (Beckman Coulter). Cells were then incubated on ice for 1 hr, washed with FACS buffer and incubated for 1 hr on ice with […] FACS buffer containing […] Alexa647-conjugated Goat Anti-Human IgG dispensed using BioMekFX (Beckman Coulter). Cells were then washed 2× with FACS buffer and fixed for 10 minutes in […] PBS with 2% PFA prior to fluorescence detection. Samples were acquired using a Beckton Dickinson LSRII FACS. Geometric Mean Fluorescence Intensity of BCMA antibody binding was analyzed using FlowJo® software (Trec Star, Inc.).
Binder,Bmax (MFI),Kd
B1,21100 MFI,–
B2,26400 MFI,–
B3,25800 MFI,–
B4,2690 MFI,–
B5,2510 MFI,–
B6,34400 MFI,–
B7,11900 MFI,6.2 nM
B8,9620 MFI,4.4 nM
B9,33900 MFI,–
B10,11500 MFI,4.4 nM
B11,11200 MFI,4.3 nM
B12,12200 MFI,4.5 nM
B13,11100 MFI,–
B14,12500 MFI,5.3 nM
B15,11600 MFI,–
B16,11400 MFI,–
B17,11700 MFI,5.2 nM
B18,12700 MFI,10.3 nM
B19,10900 MFI,4 nM

# Target: T1, BCMA on BCMA-positive NCI-H929, ARP-1 …
# Assay: cell-based or functional assay
Binder,"ARP-1, SC239-conjugated 2° antibody cell killing, EC50","ARP-1, SC239-conjugated 2° antibody cell killing, Span","U266B1, SC239-conjugated 2° antibody cell killing, EC50","U266B1, SC239-conjugated 2° antibody cell killing, Span"
B1,2.4 nM,82%,2.3 nM,42%
B2,3.8 nM,83%,1.1 nM,67%
B3,3.5 nM,82%,1.9 nM,63%

# Target: T1, BCMA on BCMA-positive NCI-H929, ARP-1 …
# Assay: cell-based or functional assay
# Remark: another data set of the same source
Binder,"U266B1, SC225-conjugated 2° antibody cell killing, EC50","U266B1, SC225-conjugated 2° antibody cell killing, Span"
B20,0.93 nM,75%
B21,1.4 nM,70%
B6,27 nM,1.1%
B9,49 nM,0.8%

# Target: cynomolgus BCMA on 293T-cynoBCMA cells (cynomolgus, UniProt Q02223 1-184 (human entry))
# Sequence (Q02223 other isoform, or with tags, fused parts or gaps): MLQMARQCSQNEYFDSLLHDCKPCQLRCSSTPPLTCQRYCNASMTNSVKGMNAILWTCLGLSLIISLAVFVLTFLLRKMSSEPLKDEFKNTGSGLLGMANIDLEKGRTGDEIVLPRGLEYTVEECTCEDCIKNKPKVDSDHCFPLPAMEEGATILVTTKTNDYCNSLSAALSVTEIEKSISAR
# Assay: FACS, 293T-cynoBCMA cells
# Description: as §1
Binder,Bmax (MFI),Kd
B20,78100 MFI,–
B21,77100 MFI,–
B1,17800 MFI,–
B2,27700 MFI,–
B3,24400 MFI,–
B4,1910 MFI,–
B5,3620 MFI,–
B6,68300 MFI,–
B7,26600 MFI,3.4 nM
B8,21900 MFI,2.5 nM
B9,63800 MFI,–
B10,24100 MFI,4.9 nM
B11,17400 MFI,2.5 nM
B12,21800 MFI,5 nM
B13,22100 MFI,–
B15,26700 MFI,5.1 nM
B16,25800 MFI,–
B17,23800 MFI,6.2 nM
B18,18500 MFI,3 nM
B19,21300 MFI,3.8 nM

# Target: T1, BCMA on BCMA-positive NCI-H929, ARP-1 …
# Assay: cell-based or functional assay
# Remark: another data set of the same source
Binder,"ARP-1, SC225-conjugated 2° antibody cell killing, EC50","ARP-1, SC225-conjugated 2° antibody cell killing, Span","U266B1, SC225-conjugated 2° antibody cell killing, EC50","U266B1, SC225-conjugated 2° antibody cell killing, Span"
B7,1.6 nM,67%,0.6 nM,59%
B8,1.9 nM,51%,1 nM,54%
B10,2.2 nM,70%,1.1 nM,61%
B11,1.5 nM,55%,0.7 nM,51%
B12,1.6 nM,62%,1 nM,62%
B13,2.9 nM,68%,1.3 nM,59%
B14,2.3 nM,57%,0.8 nM,56%
B15,1.5 nM,55%,0.8 nM,53%
B16,1.2 nM,62%,0.9 nM,59%
B17,1.9 nM,55%,0.9 nM,58%
B18,1.8 nM,52%,1.2 nM,61%
B19,1 nM,50%,0.8 nM,53%
